Our source for the self-cleavage values is the RNAGym collection of RNA variant scans (doi:10.1093/nar/gkz1192).

B1: CPEB3 Ribozyme (parent)
chain: UAACAGGGGGCCACAGCAGAAGCGUUCACGUCGCAGCCCCUGUCAGAUUCUGGUGAAUCUGCGAAUUCUGCUGUAUAUCUC

In this data set the parent is B1. As to the kind of experiment: self-cleavage, relative activity (ratio to wild type); higher = more cleavage; in vitro, sequencing. The gist of the method: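 For each CPEB3 ribozyme variant, relative activity is its cleaved/total read fraction divided by the unmutated ribozyme's. Barcoded error-prone PCR libraries were transcribed by T7 RNA polymerase (5 hours, 37°C) and held in DNase I for 15 min before an EDTA stop, with cleavage occurring throughout. Template-switching reverse transcription and Illumina sequencing were used to read the RNAs. A 5-read minimum applied, and results are the mean of three batches.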
On to UAACAGGGGGCCACAGCAGAGGCGUUCACGUCGCAGCCCCUGUCAGAUUCUGGUGAAUCAGCGAAUUCUGCUGUAUAUCUC, for which the self-cleavage was determined as 0.32. With UAGCAGGGGGCCACAGCAGAAGCGUUCACGUCGCAGCCCCUGUCAGAUUCUGGUGAAUCUGCGAAUUCUGCUGUAUAUUUC the figure was 1; with UAACAGGGGGCCACAGCAGAAGCGUUCACGUCGCAGCCCCCGUCAGAUUCUGGUGAAUCUGCGCAUUCUGCUGUAUAUCUC, 0.46. UAACAGGGGGCCACAGCAGAAGCGUUCUCGUCGCAGCCCCUGUCAGAUUCUGAUGAAUCUGCGAAUUCUGCUGUAUAUCUC: the self-cleavage was found to be 0.87. The same measure for UACCAGGGGGCCACAGCAGAAGCGUUCACGUCGCAGCCCCUGUCAGAUUCCGGUGAAUCUGCGAAUUCUGCUGUAUAUCUC: 1.12; for UAACAGGGGACCACAGCAGAAGCGUUCACGUCGCAGCCCCUGUCAGAUUCAGGUGAAUCUGCGAAUUCUGCUGUAUAUCUC: 0.33; for UAGCAGGGGGCCACAGCAGAAGCGUUCACGUCGCAGCCCCUGUCAGAUUCUGGUGAAUCUGCGAAUUCUGCUGUAUAUCUC: 1.02.

On to UAACAGGGGGCCACAGCAGAAGCGUUCACGUCGCAGCCCCUGUCAUGUUCUGGUGAAUCUGCGAAUUCUGCUGUAUAUCUC, for which the self-cleavage turned out to be 0.15.

As to UAACAGGGGGCCACAGCAGAAGCGUUCACGUCGCAGCCCCUGUCAGAUUCUGGUGAAUCUGCGAAUUCUGCGGUAUAUCUC, the self-cleavage amounted to 0.98.

Consider UAACUGGGGGCCACAGCAGAAGCGUUCACGUCGCAGCCCCUGUCUGAUUCUGGUGAAUCUGCGAAUUCUGCUGUAUAUCUC, for which the self-cleavage worked out at 0.54.

In the case of UAACAGGGGGCCACAGCAGAAGCGUUCACGUCGCAGCCCCUGUCAGAUUCUGGUGAACUUGCGAAUUCUGCUGUAUAUCUC, the self-cleavage is 0.21.

In the case of UAACAGGGGGCCACAGCAAAAGCGUUCACGUCGCAGCCCCUGUCAGAUUCUGGUGAAUCUGCGAACUCUGCUGUAUAUCUC, the self-cleavage came to 0.44. With UAACAGGGGGCCACGGCAGAAGCGUUCACGUCGCAGCCCCUCUCAGAUUCUGGUGAAUCUGCGAAUUCUGCUGUAUAUCUC the figure was 0.25; with UAACAGGGGGCCACAGCAGAAGCGUUCACGUCGCAGCCCCUGUCAGAUUCUGGUGAAUCUACGAAUUCUGCUGUAUAUAUC, 1.16; with UAACAGGGGGCCAAAGCAGAAGCGUUCACGUCGCAGCCCCUGUCAGAUUCUGGUGAAUCUGCGAAUUCUGCUGUAUACCUC, 1.07. With UAACAGGGGGCCACAGCAGAAGCGUUCACGUCGCAGCCCCUGUCAGAUUCUGGUAGAUCUGCGAAUUCUGCUGUAUAUCUC the figure was 0.8; with UAACGGGGGGCCACAGCAGAAGGGUUCACGUCGCAGCCCCUGUCAGAUUCUGGUGAAUCUGCGAAUUCUGCUGUAUAUCUC, 0.61.

As to UAACAGGGGGCCUCAGCAGAAGCGUUCACGUCGCAGCCCCUGUCAGAUUCUGGCGAAUCUGCGAAUUCUGCUGUAUAUCUC, the self-cleavage worked out at 1.1.

Consider UAACAGGGGGCCACGGCAGAAGCGUUCACGUCACAGCCCCUGUCAGAUUCUGGUGAAUCUGCGAAUUCUGCUGUAUAUCUC, for which the self-cleavage was 0.24. The same measure for UAACAGGGGGCCACAGCAGAAGCGUUCACGUCGCAGCCCCCGUCAGAUUCUGGUAAAUCUGCGAAUUCUGCUGUAUAUCUC: 0.93; for UAACAGGGGGCCACAGCAGAAGCAUUCACGUCGCAGCCCCUGUCAGAUUCUGGUGAAUCUGCGAAUUCAGCUGUAUAUCUC: 0.25; for UAACAGGGGGCCACGGCAGAAGCGUUCACGCCGCAGCCCCUGUCAGAUUCUGGUGAAUCUGCGAAUUCUGCUGUAUAUCUC: 0.36.

For the variant UAACAGGGGGCCACAGCAGAAGCGUUCAUGUCGCAGCCCCUUUCAGAUUCUGGUGAAUCUGCGAAUUCUGCUGUAUAUCUC, the self-cleavage came to 0.23.

Turning to UAACAGGGGGCCACAGCAGAAGCGUUCACGUCGCAGCCCCUGUCAGGUUCUGGUGAAUCUGCAAAUUCUGCUGUAUAUCUC, the self-cleavage stood at 0.88. The same measure for UAACAGGGGGCCACAGCAGAAGCGUUCACGUCGCAGCCCCUGUCAGAUUCUGGUGAAUCUGCGAUUUCUGCUGUUUAUCUC: 0.36; for UAACAGGGGGUCUCAGCAGAAGCGUUCACGUCGCAGCCCCUGUCAGAUUCUGGUGAAUCUGCGAAUUCUGCUGUAUAUCUC: 0.49. Consider UAACAGGGGGCCACAGUAGAAGCGUUCACGUCGCAGCCCCUGUCAGAUUCUGGUGAAUCUGCGAAUUCGGCUGUAUAUCUC, for which the self-cleavage came out at 0.25. The same measure for UAACAGGGGGCCACAGCAGAAGCAUUCACGUCGCAGCCCCUGUCAGAUUCUGGUGAAUCUGCGAAUUCUGCUGUAUGUCUC: 0.23; for UAACAGGGGGCCACAGCAGAAGCGCUCACGUCGCAGCCCCUGUCAGAUUCUGGUGAAGCUGCGAAUUCUGCUGUAUAUCUC: 0.33; for UAACAGGGGGCCACAGCAGAAGCGUUCACGUCGCUGCCCCUGUCGGAUUCUGGUGAAUCUGCGAAUUCUGCUGUAUAUCUC: 0.32. With UAACAGGGGGCCACAGCAGAAGCGUUCACGCCGCAGCCCCUGUCAGAUACUGGUGAAUCUGCGAAUUCUGCUGUAUAUCUC the figure was 0.5; with UAACAGGGGGCCACAGCAGAAGCGUUCACGUCGCAGCCCCUGUCAGAUUCUGGUGAAUCUGCGAACUCUGCCGUAUAUCUC, 0.45. The same measure for UAACAGGGGGCCACAGCAGUAGCGUUCACGUCGCAGCCCCUGUCAGAUUCUGAUGAAUCUGCGAAUUCUGCUGUAUAUCUC: 0.28; for UAACAGGGGGCUACAGCAGAAGCGUUCACGUCGCAGCCCCUGUCAGAUUCUGGUGAAUCGGCGAAUUCUGCUGUAUAUCUC: 0.46.
